Data on six molecules can be found in paper PMC6677171 (Life Science Alliance, 2019).

B4: Mis18 (S. pombe) (natural protein, UniProt Q9P802 1-194, looked up)
chain: MSQTETSHSGYIDFKKESQPSVFQCKKCFQIVGDSNAWVISHREYLSFTLSDAVENSVRVEDTFKRSDDGLCVYSELSCTRCNEVIGKVYNSTPIYLDDIRDMYTFSMDKLQAYQLGNKTVNPEGLTRYQVDLEMREDIIKLKSFCLSLYEKFELHDETLRSVKETISSLKKPKIEGKEGKKEKARTYSKRTRK
notes: Mis18, S. pombe, N-terminal YIPPEE domain and C-terminal coiled coil; 'Full-length' is said of the co-expressed complex; source: insect cells; co-expressed with Mis16 and Mis19 and co-purified, or purified alone for the pull-down

For data set [1], the target named is T1, Mis16 (S. pombe), full length, affinity tag removed (S. pombe, UniProt O94244 1-430).
T1 construct: Mis16, S. pombe, WD40-repeat protein, homologue of human RbAp46/48; codon-optimised gene; Used where the methods or text say the tag was removed (crystals, MALLS of the untagged complex) and, by the general purification protocol, for ITC and AUC; source: insect cells (baculovirus made in Sf21, expressed in Hi5), purified (Strep-Tactin, anion exchange, TEV cleavage, SEC); not shown: double …
The experiment in a line: ITC; competition: Mis16 preincubated with one peptide (H4α1 or Mis19α2) before titration with the second; apparent KD. The settings on record: both partners purified. For orientation: ITC needs no label: the signal is the heat of the interaction.

The target in data set [2] is T1, Mis16 (S. pombe), full length, affinity …. The experiment in a line: ITC; iTC200, 30°C; 50 mM Tris pH 7.5, 100 mM NaCl, 4% glycerol, 0.5 TCEP; 26 μM protein in the cell, 260 μM peptide injected. The following applies: both partners purified.
Data set [3] shares this target. The experiment in a line: SEC-MALS; 200 μg of purified Mis16–Mis19C complex on Superose 6 Increase 10/300 coupled to a Wyatt Dawn 8+ MALS system. The following applies: both partners purified. (In general: Size exclusion chromatography separates by hydrodynamic size, large species first.)
Data set [4] concerns the molecule itself. The experiment in a line: AUC; sedimentation velocity of the purified co-expressed Mis16–Mis18–Mis19 complex at two concentrations; 150 mM NaCl, 25 mM Tris–HCl pH 8.0, 2 mM TCEP; 50,000 rpm, 4°C; c(s) in SEDFIT.
Data set [5] concerns the target B4. The experiment in a line: SEC; competition: preformed Mis16–Mis18–Mis19 complex challenged with peptides from the Mis19 N terminus; dissociation seen as separate Mis16–19 and Mis18 peaks. The following applies: both partners purified.
Data set [6] addresses T1, Mis16 (S. pombe), full length, affinity …. The experiment in a line: AUC; sedimentation velocity of the purified co-expressed Mis16–Mis18–Mis19 complex at two concentrations; 150 mM NaCl, 25 mM Tris–HCl pH 8.0, 2 mM TCEP; 50,000 rpm, 4°C; c(s) in SEDFIT. The following applies: both partners purified.

B1: Mis19α2 peptide (Mis19 residues 97–112) (peptide, UniProt O42995 97-112, looked up)
peptide: LHNRVFLRRNVRAVKM
notes: also called Mis19 site C peptide
As usually defined, the Kd is the equilibrium constant for the complex coming apart. High values mean lower affinity, low ones higher affinity. Take B1: the “apparent KD with Mis16 preincubated with H4α1” value in data set [1] was 2500 nM. Further, binding in data set [2] was characterised by a dissociation constant (Kd) of 8 nM.

B2: Mis19 C-terminal peptide (residues 97–112) F102S (peptide, UniProt O42995 97-112, looked up)
peptide: LHNRVSLRRNVRAVKM
notes: the text ties the value to the F102S (eic1-1) mutant; also called F102 mutant; eic1-1 mutation
For the molecule B2, the Kd in data set [2] is ~301 nM.

B3: Mis19C (Mis19 residues 52–112) (domain or fragment, S. pombe, UniProt O42995 52-112, looked up)
chain: PRVYETELLVLRFREFGVKDNHNHPINLHSLRSKSLIRAQGKKLDLHNRVFLRRNVRAVKM
notes: holds sites A, B and C; Cannot be expressed and purified without Mis16; also called Mis19^52-C; N-terminal truncation of Mis19; source: insect cells, co-expressed with Mis16
The stoichiometry N is the number of molecules, sites or subunits per partner or assembly. Consider B3, for which the “stoichiometry N” value in data set [3] turned out to be 1.
Consider B4, for which the “stoichiometry N” value in data set [4] turned out to be 4.

B5: Mis19^1–44 peptide (peptide, UniProt O42995 1-44, looked up)
peptide: MDLMPLEKARAIEIAFDNVFHNTKIPDNLQQFDAILKRLERRRF
notes: Mis19 (Eic1), S. pombe, residues 1–44 (motifs 1 and 2); also called wild-type peptide
On to B5, for which the binding result in data set [5] is “binds”.

B6: Mis19 (S. pombe), full length (natural protein, UniProt O42995 1-112, looked up)
chain: MDLMPLEKARAIEIAFDNVFHNTKIPDNLQQFDAILKRLERRRFIPTENQKPRVYETELLVLRFREFGVKDNHNHPINLHSLRSKSLIRAQGKKLDLHNRVFLRRNVRAVKM
notes: Mis19 (also known as Eic1), S. pombe; only handled in complex; also called Eic1; source: insect cells (MultiBac), co-expressed with Mis16 and Mis18, co-purified
With B6, in data set [6], the binding result is recorded as “binds”.
